The numbers were not newly measured in publication PMC2883863, which cites them from elsewhere.

As usually defined, the pKa is the negative logarithm of the acid dissociation constant.

One series has as its target Cys32 (UniProt position 33, FWAEWCGPCKM). The following applies: not stated (quoted literature value for E. coli thioredoxin).
For another series, the target named is Cys30 (UniProt position 49, FFSFFCPHCYQ). The following applies: not stated (quoted literature value for E. coli DsbA).

Thioredoxin 1 (Escherichia coli): the pKa in the series with Cys32 is reported as 7.5. “Thiol:disulfide interchange protein DsbA (Escherichia coli)”: in the series with Cys30, the pKa is 3.5.
